Experimental data taken from publication PMC4842972, “Identification of residues crucial for the interaction between human neuroglobin and the α-subunit of heterotrimeric Gi protein” (Scientific Reports, 2016).
Numbering of substitutions follows the chain as printed. Names and notes keep the numbering of the source.

What was measured:
Test in all cases: pull-down; GST-ferric Ngb (or GST alone) immobilised on glutathione-Sepharose 4B beads, incubated with truncated Gαi1; 10 mM HEPES, 150 mM NaCl, 10 mM MgCl2, 10 uM GDP, 0.1% Tween20, pH 7.4; 1 h at 4 °C; Western blot with anti-Gαi1 monoclonal antibody
Conditions in all cases: both partners purified
[1] = biological target: T1, human WT truncated Gαi1 protein (residues 26-354), GDP-bound form (human, UniProt P63096 26-354)
T1 construct: human Gαi1 (α-subunit of heterotrimeric Gi protein), residues 26-354; lacks the N-terminal disordered region (25 amino acids); Cloned in pET151/D-TOPO with a TEV site after the His6-tag; also called WT Gαi1; not shown: His6, N-terminal, cleaved
T1 sequence (P63096 26-354): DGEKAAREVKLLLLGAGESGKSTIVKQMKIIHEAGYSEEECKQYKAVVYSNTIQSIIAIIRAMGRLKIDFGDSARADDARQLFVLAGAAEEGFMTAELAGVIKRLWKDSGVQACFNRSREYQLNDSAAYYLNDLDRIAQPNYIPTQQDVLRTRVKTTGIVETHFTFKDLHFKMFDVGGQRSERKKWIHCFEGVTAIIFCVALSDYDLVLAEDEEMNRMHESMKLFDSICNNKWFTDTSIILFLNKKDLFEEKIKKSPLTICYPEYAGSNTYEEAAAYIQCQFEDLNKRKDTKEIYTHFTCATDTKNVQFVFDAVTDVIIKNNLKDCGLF

[2] = biological target: T2, human truncated Gαi1 R86A single mutant, GDP-bound form (human, UniProt P63096 26-354, R86A)
T2 construct: human Gαi1, residues 26-354, with R86A; site-directed mutant of the truncated Gαi1 construct; also called R86A Gαi1; not shown: His6, N-terminal, cleaved
T2 sequence (P63096 26-354 R86A): as the sequence (P63096 26-354) above, with R61A counted along it

[3] = biological target: T3, human truncated Gαi1 K180L single mutant, GDP-bound form (human, UniProt P63096 26-354, K180L)
T3 construct: human Gαi1, residues 26-354, with K180L (Leu is the corresponding residue of human Gαs); site-directed mutant of the truncated Gαi1 construct; also called K180L Gαi1; not shown: His6, N-terminal, cleaved
T3 sequence (P63096 26-354 K180L): as the sequence (P63096 26-354) above, with K155L counted along it

[4] = biological target: T4, human truncated Gαi1 E236Q single mutant, GDP-bound form (human, UniProt P63096 26-354, E236Q)
T4 construct: human Gαi1, residues 26-354, with E236Q; site-directed mutant of the truncated Gαi1 construct; also called E236Q Gαi1; not shown: His6, N-terminal, cleaved
T4 sequence (P63096 26-354 E236Q): as the sequence (P63096 26-354) above, with E211Q counted along it

[5] = biological target: T5, human truncated Gαi1 E238N, E239Q double mutant, GDP-bound form (human, UniProt P63096 26-354, E238N | E239Q)
T5 construct: human Gαi1, residues 26-354, with E238N and E239Q (the corresponding residues of human Gαs); site-directed mutant of the truncated Gαi1 construct; also called E238N, E239Q Gαi1 double mutant; not shown: His6, N-terminal, cleaved
T5 sequence (P63096 26-354 E238N/E239Q): as the sequence (P63096 26-354) above, with E213N, E214Q counted along it

[6] = biological target: T6, human truncated Gαi1 K67A single mutant, GDP-bound form (human, UniProt P63096 26-354, K67A)
T6 construct: human Gαi1, residues 26-354, with K67A; site-directed mutant of the truncated Gαi1 construct; also called K67A Gαi1; not shown: His6, N-terminal, cleaved
T6 sequence (P63096 26-354 K67A): as the sequence (P63096 26-354) above, with K42A counted along it

B1: GST-human ferric E151Q Ngb mutant (natural protein)
chain: MERPEPELIRQSWRAVSRSPLEHGTVLFARLFALEPDLLPLFQYNCRQFSSPEDCLSSPEFLDHIRKVMLVIDAAVTNVEDLSSLEEYLASLGRKHRAVGVKLSSFSTVGESLLYMLEKCLGPAFTPATRAAWSQLYGAVVQAMSRGWDGQ
notes: human neuroglobin (Ngb) with E151Q (the residue of bush baby Ngb at this position); in pGEX-4T-1; Ferric form; made by site-directed mutagenesis of GST-Ngb; also called GST-human Ngb mutant; source: E. coli BL21 (DE3), purified (glutathione-Sepharose 4B)
B1: binds [1].

B2: GST-human ferric R97C Ngb mutant (natural protein)
chain: B1 chain with R97C, Q151E
notes: human neuroglobin (Ngb) with R97C (the residue of megabat Ngb at this position); in pGEX-4T-1; Ferric form; made by site-directed mutagenesis of GST-Ngb; also called GST-human Ngb mutant; source: E. coli BL21 (DE3), purified (glutathione-Sepharose 4B)
B2: binds [1].

B3: GST-human ferric WT Ngb (neuroglobin) (natural protein)
chain: B1 chain with Q151E
notes: human neuroglobin (Ngb); human Ngb cDNA cloned into pGEX-4T-1; also called GST-human WT Ngb; GST-human Ngb; source: E. coli BL21 (DE3), purified (glutathione-Sepharose 4B)
B3: binds [2]; binds [3]; binds [4]. B3: binds [5]; binds [6]; binds [1].
